# Data: patent US20040059519A1
# Values joined by “and” are separate entries in the source; they are usually repeats but may differ in a detail not shown here. Identical values can stand only once.
# Tests used:
# [1] = target: Human chorionic gonadotropin (human) (UniProt P01215); experiment: bead sandwich, flow cytometry; capture A2 (MAB 602) beads, no hCG (background)
# [2] = target: Human chorionic gonadotropin (human) (UniProt P01215); experiment: multiplex sandwich, MAB602 capture beads; hCG 16 ng/mL, no wash
# [3] = target: Human chorionic gonadotropin (human) (UniProt P01215); experiment: multiplex sandwich, MAB602 capture beads; hCG 0 ng/mL, no wash
# [4] = target: Alpha fetoprotein (UniProt P02771); experiment: MAB602 capture beads, flow cytometry; AFP 10.0 ng/mL, anti-hCG probe
# [5] = target: Human chorionic gonadotropin (human) (UniProt P01215); experiment: MAB602 capture beads, flow cytometry; hCG 1000.0 ng/mL, anti-hCG probe
# [6] = target: Human chorionic gonadotropin (human) (UniProt P01215); experiment: multiplex sandwich, MAB602 capture beads; hCG 125 ng/mL, washed
# [7] = target: Human chorionic gonadotropin (human) (UniProt P01215); experiment: multiplex sandwich, MAB602 capture beads; hCG 250 ng/mL, washed
# [8] = target: Human chorionic gonadotropin (human) (UniProt P01215); experiment: multiplex sandwich, MAB602 capture beads; hCG 125 ng/mL, no wash
# [9] = target: Alpha fetoprotein (UniProt P02771); experiment: anti-AFP capture beads, flow cytometry; AFP 100.0 ng/mL, anti-hCG probe
# [10] = target: Alpha fetoprotein (UniProt P02771); experiment: MAB602 capture beads, flow cytometry; AFP 0.0 ng/mL, anti-hCG probe
# [11] = target: Human chorionic gonadotropin (human) (UniProt P01215); experiment: sandwich, MAB602 capture beads, flow cytometry; hCG 0.2 ng/mL
# [12] = target: Human chorionic gonadotropin (human) (UniProt P01215); experiment: multiplex sandwich, MAB602 capture beads; hCG 4 ng/mL, no wash
# [13] = target: Human chorionic gonadotropin (human) (UniProt P01215); experiment: multiplex sandwich, MAB602 capture beads; hCG 4 ng/mL, washed
# [14] = target: Human chorionic gonadotropin (human) (UniProt P01215); experiment: bead sandwich, flow cytometry; capture A3 beads, no hCG (background)
# [15] = target: Human chorionic gonadotropin (human) (UniProt P01215); experiment: multiplex sandwich, MAB602 capture beads; hCG 62 ng/mL, no wash
# [16] = target: Alpha fetoprotein (UniProt P02771); experiment: multiplex no-wash sandwich, S10473 beads; Negative serum, AFP 2 U/mL
# [17] = target: Alpha fetoprotein (UniProt P02771); experiment: multiplex sandwich, S10473 capture beads; AFP 1 ng/mL, washed
# [18] = target: Alpha fetoprotein (UniProt P02771); experiment: anti-AFP capture beads, flow cytometry; AFP 10.0 ng/mL, anti-AFP probe
# [19] = target: Human chorionic gonadotropin (human) (UniProt P01215); experiment: MAB602 capture beads, flow cytometry; hCG 0.0 ng/mL, anti-AFP probe
# [20] = target: Alpha fetoprotein (UniProt P02771); experiment: multiplex sandwich, S10473 capture beads; AFP 0 ng/mL, no wash
# [21] = target: Alpha fetoprotein (UniProt P02771); experiment: multiplex sandwich, S10473 capture beads; AFP 1000 ng/mL, washed
# [22] = target: Alpha fetoprotein (UniProt P02771); experiment: multiplex sandwich, S10473 capture beads; AFP 16 ng/mL, washed
# [23] = target: Alpha fetoprotein (UniProt P02771); experiment: multiplex sandwich, S10473 capture beads; AFP 250 ng/mL, washed
# [24] = target: Peptide 8 …-biotin; experiment: multiplex 9-peptide bead set, flow cytometry; MAB 384-Bodipy 15.5 ug/mL
# [25] = target: Peptide 3 …-biotin; experiment: as above
# [26] = target: Peptide 6 …-biotin; experiment: as above
# [27] = target: Peptide 4 …-biotin; experiment: as above
# [28] = target: Peptide 2 …-biotin; experiment: as above
# [29] = target: Peptide 5 …-biotin (human); experiment: as above
# [30] = target: Peptide 7 …-biotin; experiment: as above
# [31] = target: Peptide 9 …-biotin; experiment: as above
# [32] = target: Peptide 1 …-biotin; experiment: as above
# [33] = target: Neutravidin (deglycosylated avidin) (UniProt P02701); experiment: multiplex, Neutravidin bead 40/40 without peptide, flow cytometry
# [34] = target: Neutravidin (deglycosylated avidin) (UniProt P02701); experiment: multiplex, Neutravidin bead 70/60 without peptide, flow cytometry
# [35] = target: Neutravidin (deglycosylated avidin) (UniProt P02701); experiment: multiplex, Neutravidin bead 40/70 without peptide, flow cytometry
# [36] = target: Peptide 8 …-biotin; experiment: single-analyte peptide bead, flow cytometry; MAB 384-Bodipy 15.5 ug/mL
# [37] = target: Peptide 6 …-biotin; experiment: as above
# [38] = target: Peptide 5 …-biotin (human); experiment: as above
# [39] = target: Peptide 7 …-biotin; experiment: as above
# [40] = target: Peptide 9 …-biotin; experiment: as above
# [41] = target: Neutravidin (deglycosylated avidin) (UniProt P02701); experiment: multiplex, Neutravidin bead 70/40 without peptide, flow cytometry
# [42] = target: Neutravidin (deglycosylated avidin) (UniProt P02701); experiment: single-analyte, Neutravidin bead 40/40 without peptide, flow cytometry
# UniProt P02701, sequence (P02701 25-152 limits assumed): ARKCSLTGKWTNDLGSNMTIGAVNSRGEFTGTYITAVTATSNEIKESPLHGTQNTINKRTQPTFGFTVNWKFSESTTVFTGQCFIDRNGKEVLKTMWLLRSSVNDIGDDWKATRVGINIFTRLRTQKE
# UniProt P01215, sequence (P01215 25-116, chain 1 of 2, other chains not shown): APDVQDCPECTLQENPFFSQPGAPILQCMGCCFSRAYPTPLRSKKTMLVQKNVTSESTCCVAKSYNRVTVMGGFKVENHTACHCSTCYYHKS
# UniProt P02771, sequence (P02771 19-609 limits assumed): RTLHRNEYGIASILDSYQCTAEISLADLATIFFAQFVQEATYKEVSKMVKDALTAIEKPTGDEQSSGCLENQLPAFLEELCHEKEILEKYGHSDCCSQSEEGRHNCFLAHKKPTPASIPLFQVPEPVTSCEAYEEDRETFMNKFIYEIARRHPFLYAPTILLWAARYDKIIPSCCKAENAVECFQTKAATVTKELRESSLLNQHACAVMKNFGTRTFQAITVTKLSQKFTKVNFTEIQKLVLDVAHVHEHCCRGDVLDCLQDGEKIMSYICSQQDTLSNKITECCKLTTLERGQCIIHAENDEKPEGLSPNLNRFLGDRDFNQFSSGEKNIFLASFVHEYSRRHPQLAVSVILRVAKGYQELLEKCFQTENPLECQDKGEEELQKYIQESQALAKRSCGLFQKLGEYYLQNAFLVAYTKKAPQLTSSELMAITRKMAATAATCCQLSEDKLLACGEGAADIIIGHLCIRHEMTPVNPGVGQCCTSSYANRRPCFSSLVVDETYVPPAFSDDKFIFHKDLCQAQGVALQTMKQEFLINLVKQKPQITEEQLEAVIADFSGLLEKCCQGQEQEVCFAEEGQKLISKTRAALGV
substance,measurement,setting,value
"AB633 affinity purified polyclonal anti-hCG antibody, Bodipy FL-CASE labeled",MIF of Fm,[1],163
same,MIF of Fm,[2],2440
same,MIF of Fm,[3],15
same,MIF of Fm,[4],47
same,MIF of Fm,[5],792
same,MIF of Fm,[6],2950
same,MIF of Fm,[7],2760
same,MIF of Fm,[8],2070
same,MIF of Fm,[9],75
same,MIF of Fm,[10],71
same,MIF of Fm,[11],258 and 254
same,MIF of Fm,[12],1120
same,MIF of Fm,[13],1300
same,MIF of Fm,[14],2980
same,MIF of Fm,[15],2420
"M20077 affinity purified polyclonal anti-AFP antibody, Bodipy FL-CASE labeled",MIF AVG,[16],12.3
same,MIF of FL1,[16],11 and 13
same,MIF of Fm,[17],35
same,MIF of Fm,[18],103
same,MIF of Fm,[19],72
same,MIF of Fm,[20],15
same,MIF of Fm,[21],1480
same,MIF of Fm,[22],347
same,MIF of Fm,[23],1200
"MAB 384, Bodipy FL-X labeled (antibody)",MIF of Fm,[24],32
same,MIF of Fm,[25],36
same,MIF of Fm,[26],67
same,MIF of Fm,[27],35
same,MIF of Fm,[28],36
same,MIF of Fm,[29],1350
same,MIF of Fm,[30],35
same,MIF of Fm,[31],29
same,MIF of Fm,[32],28
same,MIF of Fm,[33],25
same,MIF of Fm,[34],23
same,MIF of Fm,[35],34
same,MIF of Fm,[36],73
same,MIF of Fm,[37],43
same,MIF of Fm,[38],1380
same,MIF of Fm,[39],42
same,MIF of Fm,[40],60
same,MIF of Fm,[41],21
same,MIF of Fm,[42],44
